Here are results for six molecules from patent US11071755 (CRISPR THERAPEUTICS, dated 2021).

B1: anti-BCMA CAR of CTX-152 (BCMA-1: CD8[signal peptide]-VH-linker-VL-CD8[tm]-CD28[co-stimulatory domain]-CD3z) (other)
chain: QVQLQQSGGGLVQPGGSLKLSCAASGIDFSRYWMSWVRRAPGKGLEWIGEINPDSSTINYAPSLKDKFIISRDNAKNTLYLQMSKVRSEDTALYYCASLYYDYGDAMDYWGQGTSVTVSSGGGGSGGGGSGGGGSGDIVMTQSQRFMTTSVGDRVSVTCKASQSVDSNVAWYQQKPRQSPKALIFSASLRFSGVPARFTGSGSGTDFTLTISNLQSEDLAEYFCQQYNNYPLTFGAGTKLELKSAAAFVPVFLPAKPTTTPAPRPPTPAPTIASQPLSLRPEACRPAAGGAVHTRGLDFACDIYIWAPLAGTCGVLLLSLVITLYCNHRNRSKRSRLLHSDYMNMTPRRPGPTRKHYQPYAPPRDFAAYRSRVKFSRSADAPAYQQGQNQLYNELNLGRREEYDVLDKRRGRDPEMGGKPRRKNPQEGLYNELQKDKMAEAYSEIGMKGERRRGKGHDGLYQGLSTATKDTYDALHMQALPPR
notes: CAR on edited primary human T cells, co-expressed with GFP from a bicistronic 2A mRNA; also called BCMA-1 CAR
B2: anti-BCMA CAR of CTX-154 (BCMA-2: CD8[signal peptide]-VL-linker-VH-CD8[tm]-CD28[co-stimulatory domain]-CD3z) (other)
chain: DIVMTQSQRFMTTSVGDRVSVTCKASQSVDSNVAWYQQKPRQSPKALIFSASLRFSGVPARFTGSGSGTDFTLTISNLQSEDLAEYFCQQYNNYPLTFGAGTKLELKGGGGSGGGGSGGGGSGQVQLQQSGGGLVQPGGSLKLSCAASGIDFSRYWMSWVRRAPGKGLEWIGEINPDSSTINYAPSLKDKFIISRDNAKNTLYLQMSKVRSEDTALYYCASLYYDYGDAMDYWGQGTSVTVSSSAAAFVPVFLPAKPTTTPAPRPPTPAPTIASQPLSLRPEACRPAAGGAVHTRGLDFACDIYIWAPLAGTCGVLLLSLVITLYCNHRNRSKRSRLLHSDYMNMTPRRPGPTRKHYQPYAPPRDFAAYRSRVKFSRSADAPAYQQGQNQLYNELNLGRREEYDVLDKRRGRDPEMGGKPRRKNPQEGLYNELQKDKMAEAYSEIGMKGERRRGKGHDGLYQGLSTATKDTYDALHMQALPPR
notes: CAR on edited primary human T cells, co-expressed with GFP from a bicistronic 2A mRNA; also called BCMA-2 CAR
B3: anti-BCMA CAR of CTX-160b (4-1BB co-stimulatory domain) (other)
chain: EVQLVESGGGLVQPGGSLKLSCAASGIDFSRYWMSWVRQAPGKGLEWIGEINPDSSTINYADSVKGRFTISRDNAKNTLYLQMNLSRAEDTALYYCASLYYDYGDAMDYWGQGTLVTVSSGGGGSGGGGSGGGGSDIQMTQSPSSLSASVGDRVTITCRASQSVDSNVAWYQQKPEKAPKSLIFSASLRFSGVPSRFSGSGSGTDFTLTISSLQPEDFATYYCQQYNSYPLTFGAGTKLEIKSAAAFVPVFLPAKPTTTPAPRPPTPAPTIASQPLSLRPEACRPAAGGAVHTRGLDFACDIYIWAPLAGTCGVLLLSLVITLYCNHRNRKRGRKKLLYIFKQPFMRPVQTTQEEDGCSCRFPEEEEGGCELRVKFSRSADAPAYQQGQNQLYNELNLGRREEYDVLDKRRGRDPEMGGKPRRKNPQEGLYNELQKDKMAEAYSEIGMKGERRRGKGHDGLYQGLSTATKDTYDALHMQALPPR
notes: CAR on edited primary human T cells; also called anti-BCMA (4-1BB) CAR
B4: anti-BCMA CAR of CTX-160 (CD28 co-stimulatory domain) (other)
chain: EVQLVESGGGLVQPGGSLKLSCAASGIDFSRYWMSWVRQAPGKGLEWIGEINPDSSTINYADSVKGRFTISRDNAKNTLYLQMNLSRAEDTALYYCASLYYDYGDAMDYWGQGTLVTVSSGGGGSGGGGSGGGGSDIQMTQSPSSLSASVGDRVTITCRASQSVDSNVAWYQQKPEKAPKSLIFSASLRFSGVPSRFSGSGSGTDFTLTISSLQPEDFATYYCQQYNSYPLTFGAGTKLEIKSAAAFVPVFLPAKPTTTPAPRPPTPAPTIASQPLSLRPEACRPAAGGAVHTRGLDFACDIYIWAPLAGTCGVLLLSLVITLYCNHRNRSKRSRLLHSDYMNMTPRRPGPTRKHYQPYAPPRDFAAYRSRVKFSRSADAPAYQQGQNQLYNELNLGRREEYDVLDKRRGRDPEMGGKPRRKNPQEGLYNELQKDKMAEAYSEIGMKGERRRGKGHDGLYQGLSTATKDTYDALHMQALPPR
notes: CAR on edited primary human T cells; also called anti-BCMA (CD28) CAR
B5: anti-BCMA CAR of CTX-166b (4-1BB co-stimulatory domain) (other)
chain: QVQLVQSGAELKKPGASVKVSCKASGNTLTNYVIHWVRQAPGQRLEWMGYILPYNDLTKYSQKFQGRVTITRDKSASTAYMELSSLRSEDTAVYYCTRWDWDGFFDPWGQGTTVTVSSGGGGSGGGGSGGGGSEIVMTQSPATLSVSPGERASISCRASQSLVHSNGNTHLHWYQQRPGQAPRLLIYSVSNRFSEVPARFSGSGSGTDFTLTISSVESEDFAVYYCSQTSHIPYTFGGGTKLEIKSAAAFVPVFLPAKPTTTPAPRPPTPAPTIASQPLSLRPEACRPAAGGAVHTRGLDFACDIYIWAPLAGTCGVLLLSLVITLYCNHRNRKRGRKKLLYIFKQPFMRPVQTTQEEDGCSCRFPEEEEGGCELRVKFSRSADAPAYQQGQNQLYNELNLGRREEYDVLDKRRGRDPEMGGKPRRKNPQEGLYNELQKDKMAEAYSEIGMKGERRRGKGHDGLYQGLSTATKDTYDALHMQALPPR
notes: as for B3
B6: anti-BCMA CAR of CTX-166 (CD28 co-stimulatory domain) (other)
chain: QVQLVQSGAELKKPGASVKVSCKASGNTLTNYVIHWVRQAPGQRLEWMGYILPYNDLTKYSQKFQGRVTITRDKSASTAYMELSSLRSEDTAVYYCTRWDWDGFFDPWGQGTTVTVSSGGGGSGGGGSGGGGSEIVMTQSPATLSVSPGERASISCRASQSLVHSNGNTHLHWYQQRPGQAPRLLIYSVSNRFSEVPARFSGSGSGTDFTLTISSVESEDFAVYYCSQTSHIPYTFGGGTKLEIKSAAAFVPVFLPAKPTTTPAPRPPTPAPTIASQPLSLRPEACRPAAGGAVHTRGLDFACDIYIWAPLAGTCGVLLLSLVITLYCNHRNRSKRSRLLHSDYMNMTPRRPGPTRKHYQPYAPPRDFAAYRSRVKFSRSADAPAYQQGQNQLYNELNLGRREEYDVLDKRRGRDPEMGGKPRRKNPQEGLYNELQKDKMAEAYSEIGMKGERRRGKGHDGLYQGLSTATKDTYDALHMQALPPR
notes: as for B4

One experiment has as its target T1, recombinant biotinylated human BCMA (human, UniProt Q02223 1-54, biotinylated).
T1 construct: Soluble labelled reagent, detected with streptavidin-APC; also called recombinant BCMA; biotinylated BCMA
T1 sequence (looked up): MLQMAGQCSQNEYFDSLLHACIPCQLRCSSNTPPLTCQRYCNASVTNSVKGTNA
Description: flow cytometry, recombinant BCMA on CAR-T cells. As for the experimental part:
Allogeneic anti-BCMA CAR T cells were generated as described above. Anti-BCMA CAR expression was measured by determining the percent of cells that bound biotinylated BCMA subsequently detected by FACS using streptavidin-APC (FIG. 47).
Figure 48: FIG. 48 is a graph showing anti-BCMA CAR expression. Allogeneic CAR T cells were generated as previously described. Anti-BCMA CAR expression was measured by determining the percent of cells that bound biotinylated recombinant human BCMA subsequently detected by FACS using streptavidin-APC. […] CAR constructs were evaluated for their ability to kill RPMI-8226 cells. […] Following enrichment/purification, greater than 99.5% of the gene edited cells are TCR negative.
Take B1: the binding result was “binds”.

Regarding B2, the binding result is given as “binds”.

In a further experiment the target is T1, recombinant biotinylated human BCMA. Description: flow cytometry, biotinylated BCMA on CAR-T cells detected with streptavidin-APC. As for the experimental part: Allogeneic TRAC−/B2M−/anti-BCMA CAR T+ cells were generated, as described above, having either a CD28 co-stimulatory domain (encoded by CTX-160 or CTX-166) or a 4-1BB co-stimulatory domain (encoded by CTX160b or CTX166b). Anti-BCMA CAR expression was measured by determining the percent of cells that bound biotinylated BCMA subsequently detected by FACS using streptavidin-APC (FIG. 67). Greater than 60% of the cells expressed the CAR at the cell surface.
B3: the “percent of cells that bound biotinylated BCMA” value is more than 60%.

B4: the “percent of cells that bound biotinylated BCMA” value was more than 60%.

In the case of B5, the “percent of cells that bound biotinylated BCMA” value is more than 60%.

With B6, the “percent of cells that bound biotinylated BCMA” value was more than 60%.
